Laboratory results taken from US20240076386A1 (Pfizer, published 2024).

T1: human E-selectin extracellular domain with 10 His purification tail (human, UniProt P16581 22-556)
T1 construct: also called soluable human E-selectin extracellular domain; rhE-Selectin
T1 sequence: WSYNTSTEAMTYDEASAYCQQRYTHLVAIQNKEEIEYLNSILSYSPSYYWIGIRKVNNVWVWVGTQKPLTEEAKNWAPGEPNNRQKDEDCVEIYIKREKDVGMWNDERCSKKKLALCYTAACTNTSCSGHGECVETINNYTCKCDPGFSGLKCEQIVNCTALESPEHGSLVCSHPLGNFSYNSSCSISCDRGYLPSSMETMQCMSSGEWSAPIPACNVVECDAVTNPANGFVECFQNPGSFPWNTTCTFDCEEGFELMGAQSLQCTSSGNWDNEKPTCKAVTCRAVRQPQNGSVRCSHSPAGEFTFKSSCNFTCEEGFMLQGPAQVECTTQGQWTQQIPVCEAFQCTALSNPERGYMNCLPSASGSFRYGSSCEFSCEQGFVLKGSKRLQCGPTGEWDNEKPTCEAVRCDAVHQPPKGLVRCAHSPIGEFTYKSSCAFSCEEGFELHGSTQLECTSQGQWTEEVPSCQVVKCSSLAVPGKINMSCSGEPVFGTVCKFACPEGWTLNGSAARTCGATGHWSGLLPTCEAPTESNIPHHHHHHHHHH

T2: cynomolgus monkey E-selectin extracellular domain with 10 His purification tail (cynomolgus monkey, UniProt P16581 22-554 (human entry))
T2 construct: also called cynomolgus E-selectin; truncated cynomolgus monkey E-selectin
T2 chain: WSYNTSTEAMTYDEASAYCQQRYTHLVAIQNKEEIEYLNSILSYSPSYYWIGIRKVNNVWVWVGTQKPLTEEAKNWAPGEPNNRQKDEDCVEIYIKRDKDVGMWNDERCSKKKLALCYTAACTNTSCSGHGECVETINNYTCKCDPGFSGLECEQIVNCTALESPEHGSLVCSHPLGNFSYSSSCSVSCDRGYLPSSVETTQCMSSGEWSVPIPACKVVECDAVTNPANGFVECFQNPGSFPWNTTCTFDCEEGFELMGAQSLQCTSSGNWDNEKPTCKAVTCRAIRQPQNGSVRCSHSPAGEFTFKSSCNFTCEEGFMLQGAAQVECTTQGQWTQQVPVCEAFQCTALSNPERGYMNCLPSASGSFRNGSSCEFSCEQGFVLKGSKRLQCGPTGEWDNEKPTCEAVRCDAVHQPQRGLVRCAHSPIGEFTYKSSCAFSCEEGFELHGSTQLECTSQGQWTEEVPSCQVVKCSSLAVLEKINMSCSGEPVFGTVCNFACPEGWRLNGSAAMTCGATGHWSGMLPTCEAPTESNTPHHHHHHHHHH

T3: cynomolgus monkey E-selectin, cell-surface expressed (cynomolgus monkey, UniProt P16581 22-610 (human entry))
T3 chain: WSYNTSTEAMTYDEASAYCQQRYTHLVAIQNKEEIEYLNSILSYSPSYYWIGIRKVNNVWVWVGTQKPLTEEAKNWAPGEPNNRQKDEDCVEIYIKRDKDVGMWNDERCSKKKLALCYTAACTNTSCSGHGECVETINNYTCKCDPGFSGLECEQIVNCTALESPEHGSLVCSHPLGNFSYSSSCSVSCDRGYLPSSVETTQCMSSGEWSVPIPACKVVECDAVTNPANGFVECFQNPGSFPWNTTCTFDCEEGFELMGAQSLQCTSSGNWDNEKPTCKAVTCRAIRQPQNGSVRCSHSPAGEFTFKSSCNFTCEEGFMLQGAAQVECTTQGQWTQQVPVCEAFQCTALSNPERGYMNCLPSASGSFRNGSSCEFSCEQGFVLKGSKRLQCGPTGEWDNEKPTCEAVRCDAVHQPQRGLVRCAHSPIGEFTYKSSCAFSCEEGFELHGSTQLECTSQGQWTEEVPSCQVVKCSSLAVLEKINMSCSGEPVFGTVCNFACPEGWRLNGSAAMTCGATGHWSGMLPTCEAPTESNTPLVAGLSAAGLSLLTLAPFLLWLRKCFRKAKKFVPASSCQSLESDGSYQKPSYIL


Assays:
[1] = molecular target: T1, human E-selectin extracellular domain …; assay: SPR, antibody captured, E-selectin analyte
Experimental: (§1) Final immobilization level of the capture antibody was approximately 10,000 resonance units (RU). The running buffer for immobilization and kinetics was HBS-EP+(10 mM 4-(2-hydroxyethyl)-1-piperazineethanesulfonic acid (HEPES) pH 7.4, 150 mM sodium chloride, 3 mM ethylenediaminetetraacetic acid (EDTA), 0.05% (v/v) Tween-20).
(§2) To characterize binding of antibodies to human, cynomolgus monkey, and mouse E-selectin, an antibody was diluted to 0.5 μg/mL in HBS-EP+ and captured by the anti-human IgG immobilized on flow cells 2, 3 and 4 for 30 seconds to 1 minute at a flow rate of 10 μL/minute to achieve a capture level of 70 to 300 RU. Flow cell 1 was used as a reference surface. […] HBS-EP+ buffer cycles collected for each captured antibody were used for double-referencing (Myszka D G. J. Mol. Recognition 1999; 12(5):279-84). At the end of each cycle, the entire anti-IgG surface was regenerated by a 30 second pulse of 3 M MgCl₂ and a 30 second pulse of ionic buffer (1.83 M MgCl₂, 0.92 M Urea, 1.83 M Guanidine HCl, pH 7.4) (Andersson K. Analy. Chem. 1999; 71(13): 2475-81). Kinetic assays were conducted at 25° C. at a collection rate of 10 Hertz (Hz) on a BIAcore™ T200 instrument (GE Healthcare). Rate constants and affinities were determined by fitting the data to a 1:1 binding model in BIAcore™ T200 Evaluation software version 3.0 (GE Healthcare).
(§3) This was done by first binding the antibody to immobilized anti-human IgG. After antibody capture, dilutions of the E-selectin proteins were flowed over and the association rate constant (ka), disassociation rate constant (kd), t½, and KD values were determined for binding to human and cynomolgus E-selectin (Table 13).

[2] = molecular target: T2, cynomolgus monkey E-selectin …; assay: SPR, antibody captured, E-selectin analyte
Experimental: as §1, §2, §3

[3] = molecular target: T1, human E-selectin extracellular domain …; assay: SPR, soluble recombinant protein
Experimental: as §2

[4] = molecular target: T2, cynomolgus monkey E-selectin …; assay: SPR, soluble recombinant protein
Experimental: as §2

[5] = molecular target: T3, cynomolgus monkey E-selectin, …; assay: cell-based or functional assay

Row | Kd [1] [nM] | koff [1] [s⁻¹] | kon [1] [M⁻¹ s⁻¹] | t½ [1] [s] | Kd [2] [nM] | koff [2] [s⁻¹] | kon [2] [M⁻¹ s⁻¹] | t½ [2] [s] | Kd [3] [nM] | Kd [4] [nM] | Flow adhesion neutralization of HL-60 cells, CHO cells, cynomolgus monkey E-selectin, IC50 [5] [nM] | Neutralization of Human Neutrophils, CHO cells, cynomolgus E-selectin, flow, IC50 [5] [nM] | Static adhesion neutralization of HL-60 cells, CHO cells, cynomolgus monkey E-selectin, IC50 [5] [nM] | Binder
1 | 92.8 | 0.0237 | 255000 | 29.3 | 138 | 0.0252 | 182000 | 27.6 |  |  |  |  |  | humanized anti-E-selectin antibody 0841 (antibody, human IgG1, kappa, V domains shown, effector-null human IgG1, kappa) VH: EVQLVESGGGLVQPGGSLRLSCAASGYNIRSSYMHWVRQAPGKGLEWVARIDPANGNTIYAEKFKIRFTISADNAKNSAYLQMNSLRAEDTAVYYCAMDLYSTSEYWGQGTLVTVSS VL: DIQMTQSPSSLSASVGDRVTITCKTSQNINRYLNWYQQKPGKAPKLLIYNANSLQTGVPSRFSGSGSGTDFTLTISSLQPEDFATYFCLQDNSWPLTFGQGTKVEIKR
2 |  |  |  |  |  |  |  |  | 68.4 | 64.9 | 4.32 to 4.35 | 9.45 to 16.3 | 3.84 | optimized anti-E-selectin antibody 1444 (antibody, human IgG1, kappa, V domains shown, effector-null human IgG1, kappa) VH: EVQLVESGGGLVQPGGSLRLSCAASGYAIRSAYMHWVRQAPGKGLEWVARIDPANGNTIYVDSVTGRFTISADNAKNSAYLQMNSLRAEDTAVYYCAMDLYSTSEYWGQGTLVTVSS VL: DIQMTQSPSSLSASVGDRVTITCKTSQNIERYLNWYQQKPGKAPKLLIYAASSLQSGVPSRFSGSGSGTDFTLTISSLQPEDFATYFCLQDNAWPLTFGQGTKVEIKR
